Source: the supplement of paper PMC10567573

B1: BTBD1 (parent)
chain: TSAEIELPDVEPAAFLALLRFLYS
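Further: lentivirally expressed fusions sorted by FACS into six bins by GFP to DsRed ratio, PSI derived from sequencing read proportions per bin multiplied by bin number.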

Variants of: B1
Test: protein stability index of a GFP-peptide fusion (GPS, HEK-293T) (PSI 1-6); higher = more stable
Conditions: c terminus: a fixed tail appended
For V10P, the protein stability index was 2.32. Work on V10T yielded a protein stability index of 2.01. Work on V10L yielded a protein stability index of 1.56. V10A showed a protein stability index of 1.8. V10M gave a protein stability index of 1.95. In the case of V10D, the protein stability index is reported as 2.2. In the case of V10S, the protein stability index is reported as 2.78. Variant V10H has a protein stability index of 1.65. Variant V10Y has a protein stability index of 1.78. Variant V10K has a protein stability index of 1.69. For V10N, the protein stability index was 2.08. For V10E, the protein stability index was 2.35. In the case of V10Q, the protein stability index is reported as 2.22. In the case of V10R, the protein stability index is reported as 2.09. Variant V10I has a protein stability index of 1.8. Variant V10G has a protein stability index of 2.23. Variant V10C has a protein stability index of 1.67. V10F showed a protein stability index of 1.82. V10W gave a protein stability index of 1.62. Variant E11A has a protein stability index of 1.84. Work on D9S yielded a protein stability index of 2.12. In the case of D9K, the protein stability index is reported as 1.98. For D9M, the protein stability index was 2.11. For D9Q, the protein stability index was 2.45. For D9R, the protein stability index was 2.24. For D9T, the protein stability index was 2.55. Work on D9H yielded a protein stability index of 2. In the case of D9W, the protein stability index is reported as 2.12. Work on D9F yielded a protein stability index of 2.23. Variant D9L has a protein stability index of 1.63. D9P showed a protein stability index of 2.4. D9I gave a protein stability index of 1.49. For D9N, the protein stability index was 2. In the case of D9A, the protein stability index is reported as 1.84. D9V gave a protein stability index of 1.95. D9E gave a protein stability index of 2.19. In the case of D9G, the protein stability index is reported as 1.92. With D9C the protein stability index was 1.62. Variant D9Y has a protein stability index of 1.33. In the case of P8N, the protein stability index is reported as 1.92. Work on P8E yielded a protein stability index of 2.17. P8T showed a protein stability index of 1.74. P8H showed a protein stability index of 1.63. In the case of P8W, the protein stability index is reported as 1.53. For P8G, the protein stability index was 1.96. For P8Q, the protein stability index was 1.76. Variant P8S has a protein stability index of 2.06. With P8A the protein stability index was 1.97. With P8I the protein stability index was 1.62. In the case of P8R, the protein stability index is reported as 1.93. Work on P8F yielded a protein stability index of 2.23. P8M showed a protein stability index of 1.9. Variant P8C has a protein stability index of 1.49. In the case of P8D, the protein stability index is reported as 1.95. With P8L the protein stability index was 1.26. Variant P8V has a protein stability index of 2.48. Work on P8Y yielded a protein stability index of 2.37. Work on P8K yielded a protein stability index of 1.46. L7M gave a protein stability index of 2.08. For L7H, the protein stability index was 2.22. With L7P the protein stability index was 2.3. For L7F, the protein stability index was 1.96. For L7S, the protein stability index was 1.79. In the case of L7G, the protein stability index is reported as 1.89. Work on L7T yielded a protein stability index of 1.75. With L7I the protein stability index was 1.93. In the case of L7V, the protein stability index is reported as 1.98. Work on L7A yielded a protein stability index of 1.88. L7Q gave a protein stability index of 1.96. L7N showed a protein stability index of 1.9. L7Y gave a protein stability index of 2.05. L7C gave a protein stability index of 1.75. In the case of L7E, the protein stability index is reported as 1.63. For L7D, the protein stability index was 2.15. Work on L7K yielded a protein stability index of 2.31. In the case of L7R, the protein stability index is reported as 2.28. For L7W, the protein stability index was 2.02. In the case of S2V, the protein stability index is reported as 1.87. In the case of S2H, the protein stability index is reported as 1.82. In the case of S2W, the protein stability index is reported as 1.91. S2L gave a protein stability index of 1.99. Variant S2G has a protein stability index of 2.15. In the case of S2Q, the protein stability index is reported as 2.24. S2M showed a protein stability index of 1.7. S2R showed a protein stability index of 2.09. Work on S2K yielded a protein stability index of 2.39. With S2Y the protein stability index was 2.28. S2P showed a protein stability index of 2.33. For S2I, the protein stability index was 2.07. With S2N the protein stability index was 1.49. For S2T, the protein stability index was 1.74. Work on I5D yielded a protein stability index of 2.44. With I5L the protein stability index was 1.75. With I5F the protein stability index was 1.78. In the case of I5H, the protein stability index is reported as 1.93. In the case of I5V, the protein stability index is reported as 1.75. Work on I5A yielded a protein stability index of 2.06. I5E showed a protein stability index of 2.03. I5N showed a protein stability index of 2.14. I5T gave a protein stability index of 2.18. Variant I5Y has a protein stability index of 1.95. With I5K the protein stability index was 2.94. Work on I5P yielded a protein stability index of 1.68. In the case of I5C, the protein stability index is reported as 1.77. For I5M, the protein stability index was 1.89. For I5R, the protein stability index was 2.55. With I5W the protein stability index was 2. Work on I5S yielded a protein stability index of 1.94. I5G gave a protein stability index of 2.55. Variant I5Q has a protein stability index of 2.4. A3M showed a protein stability index of 1.52. For A3N, the protein stability index was 1.96. A3H gave a protein stability index of 1.8. With A3K the protein stability index was 2.17. Work on A3L yielded a protein stability index of 1.53. For A3F, the protein stability index was 1.58. For A3W, the protein stability index was 1.41. A3T gave a protein stability index of 1.99. Work on A3Q yielded a protein stability index of 2.01. In the case of A3D, the protein stability index is reported as 2.12. A3P showed a protein stability index of 2.12. A3V showed a protein stability index of 2.27. A3C showed a protein stability index of 1.98. Variant A3G has a protein stability index of 2.66. Variant A3S has a protein stability index of 1.67. With A3E the protein stability index was 1.91. Variant A3R has a protein stability index of 2.26. Variant A3I has a protein stability index of 2.26. Variant A3Y has a protein stability index of 1.83. With E4L the protein stability index was 1.91. With E4Q the protein stability index was 2.14. E4K gave a protein stability index of 1.17. E4I showed a protein stability index of 2.07. With E4F the protein stability index was 2.24. E4S gave a protein stability index of 1.45. Work on E4V yielded a protein stability index of 1.55. Work on E4P yielded a protein stability index of 1.64. With E4D the protein stability index was 1.66. E4T gave a protein stability index of 1.73. Variant E4G has a protein stability index of 2.07. With E4M the protein stability index was 1.55. E4A gave a protein stability index of 1.84. Variant E4N has a protein stability index of 1.44. In the case of E4C, the protein stability index is reported as 1.8. For E4H, the protein stability index was 1.56. Variant E4Y has a protein stability index of 1.68. Variant E4R has a protein stability index of 1.59. E4W showed a protein stability index of 1.88. Variant E6S has a protein stability index of 2.49. Work on E6P yielded a protein stability index of 2.31. Work on E6G yielded a protein stability index of 1.75. For E6K, the protein stability index was 2.13. E6V showed a protein stability index of 1.67. E6A showed a protein stability index of 2.19. E6L showed a protein stability index of 1.73. E6H showed a protein stability index of 1.78. Variant E6C has a protein stability index of 2.3. With E6D the protein stability index was 2.07. E6T showed a protein stability index of 2.1. For E6R, the protein stability index was 1.84. In the case of E6N, the protein stability index is reported as 1.96. For E6M, the protein stability index was 2.22. E6Y gave a protein stability index of 1.74. For E6I, the protein stability index was 2.82. E6Q showed a protein stability index of 2.01. In the case of E6F, the protein stability index is reported as 1.64. In the case of E6W, the protein stability index is reported as 1.85.
